Laboratory results reported in patent US10413607B2, “Antibody specifically binding to ErbB3 and use thereof” (ISU ABXIS CO., LTD., priority 2015, dated 2019).
Numbering of substitutions follows the chain as printed.

B1: 442S9: modified anti-ErbB3 antibody from lead antibody 442P (CDR mutagenesis) (antibody, V domains shown)
VH: EVQLLESGGGLVQPGGSLRLSCAASGFTFSDYDMSWVRQAPGKGLEWVSSIYPDSGSTYYADSVQGRFTISRDNSKNTLYLQMNSLRAEDTAVYYCAKDRHMWPEGPFDYWGQGTLVTVSS
VL: QSVLTQPPSASGTPGQRVTISCSGSSSNIGSNSGSWYQQLPGTAPKLLIYADNHRPSGVPDRFSGSKSGTSASLAISGLRSEDEADYYCAAWDSSLSGYVFGGGTKLTVLG
modifications: Heavy chain variable region of antibody 442S9; Light chain variable region of antibody 442S9
B2: 472M1: modified anti-ErbB3 antibody from lead antibody 472P (CDR mutagenesis) (antibody, V domains shown)
VH: EVQLLESGGGLVQPGGSLRLSCAASGFTFSWYDLSWVRQAPGKGLEWVSGISYDGGNTYYADSVKGRFTISRDNSKNTLYLQMNSLRAEDTAVYYCARDPSWCLQDLCYYADGMDVWGQGTLVTVSS
VL: B1 VL with G34V, N53S, H54N, A90G, A91S, S94Y
modifications: Heavy chain variable region of antibody 472M1; Light chain variable region of antibody 472M1
B3: 442M11: modified anti-ErbB3 antibody from lead antibody 442P (CDR mutagenesis) (antibody, V domains shown)
VH: B1 VH with S50T, Y52E, S55Y, Y59L, R100L, W103G
VL: B1 VL with G34V, A51S, A90H, Y99D, V100F
modifications: Heavy chain variable region of antibody 442M11; Light chain variable region of antibody 442M11
B4: 451M2: modified anti-ErbB3 antibody from lead antibody 451P (CDR mutagenesis) (antibody, V domains shown)
VH: EVQLLESGGGLVQPGGSLRLSCAASGFTFSDYDMSWVRQAPGKGLEWVSAIYYDSGSIYYADSAKGRFTISRDNSKNTLYLQMNSLRAEDTAVYYCAKDRLFASDSTFDYWGQGTLVTVSS
VL: B1 VL with S26P, S31N, G34V, S35T, A51Y, N53S, A90G, A91S, S94A, S97N
modifications: Heavy chain variable region of antibody 451M2; Light chain variable region of antibody 451M2
B5: 442M3: modified anti-ErbB3 antibody from lead antibody 442P (CDR mutagenesis) (antibody, V domains shown)
VH: B1 VH
VL: B1 VL with H54W
modifications: Heavy chain variable region of antibody 442M3; Light chain variable region of antibody 442M3
B6: 442M6: modified anti-ErbB3 antibody from lead antibody 442P (CDR mutagenesis) (antibody, V domains shown)
VH: B1 VH with Y52E, Y59D
VL: B1 VL with H54W
modifications: Heavy chain variable region of antibody 442M6; Light chain variable region of antibody 442M6
B7: 472S1: modified anti-ErbB3 antibody from lead antibody 472P (CDR mutagenesis) (antibody, V domains shown)
VH: B2 VH with L34M, S35T
VL: B1 VL with G34V, N53S, H54N, A90G, A91S, S94Y
modifications: Heavy chain variable region of antibody 472S1; Light chain variable region of antibody 472S1
B8: 442M8: modified anti-ErbB3 antibody from lead antibody 442P (CDR mutagenesis) (antibody, V domains shown)
VH: B1 VH with R100L, W103G
VL: B1 VL with G34V, A51S, A90H, S97Y, G98V, Y99D
modifications: Heavy chain variable region of antibody 442M8; Light chain variable region of antibody 442M8
B9: 472S4: modified anti-ErbB3 antibody from lead antibody 472P (CDR mutagenesis) (antibody, V domains shown)
VH: B2 VH with L34I, S35A
VL: B1 VL with G34V, N53S, H54N, A90G, A91S, S94Y
modifications: Heavy chain variable region of antibody 472S4; Light chain variable region of antibody 472S4
B10: 451M3: modified anti-ErbB3 antibody from lead antibody 451P (CDR mutagenesis) (antibody, V domains shown)
VH: B4 VH with D31H
VL: B1 VL with S26P, S31N, G34V, S35T, A51Y, N53S, A90G, A91S, S94A, S97N
modifications: Heavy chain variable region of antibody 451M3; Light chain variable region of antibody 451M3
B11: 472S2: modified anti-ErbB3 antibody from lead antibody 472P (CDR mutagenesis) (antibody, V domains shown)
VH: B2 VH with S35A
VL: B1 VL with G34V, N53S, H54N, A90G, A91S, S94Y
modifications: Heavy chain variable region of antibody 472S2; Light chain variable region of antibody 472S2
B12: 442M4: modified anti-ErbB3 antibody from lead antibody 442P (CDR mutagenesis) (antibody, V domains shown)
VH: B1 VH with S50T, Y52D, P53L, T58I, R100L, W103G
VL: B1 VL with G34V, A51S, A90V, A91G, S97Y, Y99H
modifications: Heavy chain variable region of antibody 442M4; Light chain variable region of antibody 442M4
B13: 442M10: modified anti-ErbB3 antibody from lead antibody 442P (CDR mutagenesis) (antibody, V domains shown)
VH: B1 VH with Y59D, R100L
VL: B1 VL with G34V, H54F
modifications: Heavy chain variable region of antibody 442M10; Light chain variable region of antibody 442M10
B14: 451M1: modified anti-ErbB3 antibody from lead antibody 451P (CDR mutagenesis) (antibody, V domains shown)
VH: B4 VH with A103M
VL: B1 VL with S26P, S31N, G34V, S35T, A51Y, N53S, A90G, A91S, S94A, S97N
modifications: Heavy chain variable region of antibody 451M1; Light chain variable region of antibody 451M1
B15: 442M5: modified anti-ErbB3 antibody from lead antibody 442P (CDR mutagenesis) (antibody, V domains shown)
VH: B1 VH with S50T, Y52D, P53L, T58I, R100L, W103G
VL: B1 VL with G34V, A51S, A90H, S97W, Y99D
modifications: Heavy chain variable region of antibody 442M5; Light chain variable region of antibody 442M5
B16: 472S3: modified anti-ErbB3 antibody from lead antibody 472P (CDR mutagenesis) (antibody, V domains shown)
VH: B2 VH with L34M
VL: B1 VL with G34V, N53S, H54N, A90G, A91S, S94Y
modifications: Heavy chain variable region of antibody 472S3; Light chain variable region of antibody 472S3

target: T1, recombinant human ErbB3 protein (Homo sapiens, UniProt P21860); experiment: Binding affinity of anti-ErbB3 antibody to human ErbB3 protein (Octet QK384); conditions: immobilized human ErbB3; binding phase about 900 seconds
T1 construct: purchased R&D systems
Description: In particular, the binding affinities of the anti-ErbB3 antibodies to the recombinant human ErbB3 protein (R&D systems) and the antigen-antibody interactive dynamics were measured using an Octet® QK384 system (Pall Life Sciences). After activation of carboxyl groups in 20 mM of 1-ethyl-3-(3-dimethylaminopropyl)carbodiimide hydrochloride (EDC) and 40 mM of N-hydroxysulfosuccinimide (sulfo-NHS) solution on an AR2G sensor (ForteBio), 10 μg/mL of human ErbB3 protein solution diluted with 10 mM of sodium acetate (pH 4.0) (ForteBio) was added to immobilize human ErbB3 protein onto the AR2G sensor. The AR2G sensor to which the human ErbB3 protein was immobilized was treated with 1 M of ethanolamine (ForteBio) to inactivate the remaining unreacted carboxyl groups.

Going from B1 to B2, the “ka (association constant)” value rises from 821000 M⁻¹ s⁻¹ to 1.39e+06 M⁻¹ s⁻¹ (1.7-fold).

B3 and B4 are within 1.5-fold of each other in “ka (association constant)” value: 1.49e+06 M⁻¹ s⁻¹ for the first, 1.24e+06 M⁻¹ s⁻¹ for the second.

B5 and B6 are within 1.5-fold of each other in “ka (association constant)” value: 771000 M⁻¹ s⁻¹ for the first, 969000 M⁻¹ s⁻¹ for the second.

B7 and B8 are within 1.5-fold of each other in “ka (association constant)” value: 649000 M⁻¹ s⁻¹ for the first, 870000 M⁻¹ s⁻¹ for the second.

Compared with B9, B10 is 1.6-fold higher in “ka (association constant)” value: 1.15e+06 M⁻¹ s⁻¹ for the first, 1.87e+06 M⁻¹ s⁻¹ for the second.

Going from B11 to B12, the “ka (association constant)” value falls from 1.07e+06 M⁻¹ s⁻¹ to 573000 M⁻¹ s⁻¹ (1.9-fold).

Going from B13 to B14, the “ka (association constant)” value rises from 471000 M⁻¹ s⁻¹ to 1.24e+06 M⁻¹ s⁻¹ (2.6-fold).

B15 and B16 are within 1.5-fold of each other in “ka (association constant)” value: 665000 M⁻¹ s⁻¹ for the first, 522000 M⁻¹ s⁻¹ for the second.

same assay, conditions: immobilized human ErbB3; dissociation phase about 1200 seconds

Going from B1 to B2, the “kd (dissociation constant)” value falls from 5.87e-05 s⁻¹ to 1.74e-05 s⁻¹ (3.4-fold).

First: B3
Second: B4
The “kd (dissociation constant)” value of the first is 1.9-fold lower: 8.09e-06 s⁻¹ for the first, 1.56e-05 s⁻¹ for the second.

Compared with B5, B6 is 7.4-fold higher in “kd (dissociation constant)” value: 2.62e-06 s⁻¹ for the first, 1.95e-05 s⁻¹ for the second.

Compared with B7, B8 is 6.7-fold higher in “kd (dissociation constant)” value: 3.33e-07 s⁻¹ for the first, 2.23e-06 s⁻¹ for the second.

Compared with B9, B10 is 47-fold lower in “kd (dissociation constant)” value: 1.09e-05 s⁻¹ for the first, 2.3e-07 s⁻¹ for the second.

First: B14
Second: B16
The “kd (dissociation constant)” value of the first is 220-fold higher: 3.08e-05 s⁻¹ for the first, 1.43e-07 s⁻¹ for the second.

With B11 the “kd (dissociation constant)” value was less than 1e-07 s⁻¹.
B12 was tested, and the “kd (dissociation constant)” value was less than 1e-07 s⁻¹.
For B13, the “kd (dissociation constant)” value was less than 1e-07 s⁻¹.
B15 was tested, and the “kd (dissociation constant)” value was less than 1e-07 s⁻¹.
